Source: paper PMC8352909
One block for each substance: values may come before it.

Tests used:
[1] = molecular target: Fc-tagged human IL-2 receptor subunit alpha, extracellular domain (hIL-2 Ra-Fc) (human) (UniProt P01589)
[2] = molecular target: Fc-tagged human IL-2 receptor beta subunit extracellular domain (hIL-2 Rb-Fc) (human) (UniProt P14784)
[3] = molecular target: Fc-tagged human IL-2 receptor alpha subunit extracellular domain (hIL-2 Ra-Fc) (human) (UniProt P01589)

UniProt P14784, sequence (P14784 27-240): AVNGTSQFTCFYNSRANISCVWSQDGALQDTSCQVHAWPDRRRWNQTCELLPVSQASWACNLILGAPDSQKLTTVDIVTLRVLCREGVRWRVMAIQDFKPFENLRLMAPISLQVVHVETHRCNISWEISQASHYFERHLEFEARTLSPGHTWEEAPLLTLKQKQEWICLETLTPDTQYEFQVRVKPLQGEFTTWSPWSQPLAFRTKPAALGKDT

Substance: IL-2 with E62 replaced with AzK, pegylated with 10 kDa mPEG (from UniProt P60568 21-153) (ligand)
Supplementary Table 1: βγ EC50 (nM), DiscoverX PathHunter IL-2 receptor βγ assay; row E62 [2]: 3 nM

Substance: IL-2 with E68 replaced with AzK, pegylated with 30 kDa mPEG (from UniProt P60568 21-153) (ligand)
Supplementary Table 1: βγ EC50 (nM), DiscoverX PathHunter IL-2 receptor βγ assay; row E68* [2]: 7.7 nM
Supplementary Table 1: αβγ EC50 (nM), DiscoverX PathHunter IL-2 receptor αβγ assay; row E68* [3]: 0.09 nM

Substance: IL-2 with K35 replaced with AzK, pegylated with 10 kDa mPEG (from UniProt P60568 21-153) (ligand)
Supplementary Table 1: βγ EC50 (nM), DiscoverX PathHunter IL-2 receptor βγ assay; row K35 [2]: 6.75 nM

Substance: IL-2 with K43 replaced with AzK, pegylated with 10 kDa mPEG (from UniProt P60568 21-153) (ligand)
Supplementary Table 1: βγ EC50 (nM), DiscoverX PathHunter IL-2 receptor βγ assay; row K43 [2]: 9.84 nM
Supplementary Table 1: αβγ EC50 (nM), DiscoverX PathHunter IL-2 receptor αβγ assay; row K43 [3]: 0.13 nM

Substance: IL-2 with R38 replaced with AzK, pegylated with 10 kDa mPEG (from UniProt P60568 21-153) (ligand)
Supplementary Table 1: βγ EC50 (nM), DiscoverX PathHunter IL-2 receptor βγ assay; row R38 [2]: 4.16 nM
Supplementary Table 1: αβγ EC50 (nM), DiscoverX PathHunter IL-2 receptor αβγ assay; row R38 [3]: 0.17 nM

Substance: IL-2 with Y45 replaced with AzK, pegylated with 10 kDa mPEG (from UniProt P60568 21-153) (ligand)
Supplementary Table 1: βγ EC50 (nM), DiscoverX PathHunter IL-2 receptor βγ assay; row Y45 [2]: 9.06 nM
Supplementary Table 1: αβγ EC50 (nM), DiscoverX PathHunter IL-2 receptor αβγ assay; row Y45 [3]: 0.11 nM

Now from value to substance:

potency (EC50) of pSTAT5 induction in Treg cells of human PBMC, PEG size study [1]: 5450 pg/mL
Substance: IL-2 P65 AzK (replacement of proline 65 with AzK, without PEG attachment) (from UniProt P60568 21-153) (ligand)

Supplementary Table 1: βγ EC50 (nM), DiscoverX PathHunter IL-2 receptor βγ assay; row E62* [2]: 7.46 nM
Supplementary Table 1: αβγ EC50 (nM), DiscoverX PathHunter IL-2 receptor αβγ assay; row E62* [3]: 2.84 nM
Substance: IL-2 with E62 replaced with AzK, pegylated with 30 kDa mPEG (from UniProt P60568 21-153) (ligand)

Supplementary Table 1: βγ EC50 (nM), DiscoverX PathHunter IL-2 receptor βγ assay; row F42 [2]: 6.09 nM
Supplementary Table 1: αβγ EC50 (nM), DiscoverX PathHunter IL-2 receptor αβγ assay; row F42 [3]: 0.52 nM
Substance: IL-2 with F42 replaced with AzK, pegylated with 10 kDa mPEG (from UniProt P60568 21-153) (ligand)

Supplementary Table 1: βγ EC50 (nM), DiscoverX PathHunter IL-2 receptor βγ assay; row T41 [2]: 6.37 nM
Supplementary Table 1: αβγ EC50 (nM), DiscoverX PathHunter IL-2 receptor αβγ assay; row T41 [3]: 0.05 nM
Substance: IL-2 with T41 replaced with AzK, pegylated with 10 kDa mPEG (from UniProt P60568 21-153) (ligand)

Supplementary Table 1: βγ EC50 (nM), DiscoverX PathHunter IL-2 receptor βγ assay; row V69* [2]: 9.99 nM
Supplementary Table 1: αβγ EC50 (nM), DiscoverX PathHunter IL-2 receptor αβγ assay; row V69* [3]: 0.08 nM
Substance: IL-2 with V69 replaced with AzK, pegylated with 30 kDa mPEG (from UniProt P60568 21-153) (ligand)
